Source: paper PMC9482650, “Quantitative fragmentomics allow affinity mapping of interactomes” (Nature Communications, 2022)
Residue numbers refer to the chain shown, from its start.

Assays:
Experiment in all cases: holdup assay
Design in all cases: key: below the threshold = too weak to quantify, mostly under pKd 3.1 to 4
Conditions in all cases: plain residues with an end cap or a label only (N-terminal biotin on a linker: ado-ado)
[1] = target: FRMPD2_2, Q68DX3
[2] = target: T1, GRIP1_4, Q9Y3R0
T1 sequence (Q9Y3R0 467-571, limits assumed, looked up): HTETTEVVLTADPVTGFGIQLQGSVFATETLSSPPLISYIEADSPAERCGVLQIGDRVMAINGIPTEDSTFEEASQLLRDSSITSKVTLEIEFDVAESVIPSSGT

[3] = target: T2, ARHGAP21, Q5T5U3
T2 sequence (Q5T5U3 45-169, limits assumed, looked up): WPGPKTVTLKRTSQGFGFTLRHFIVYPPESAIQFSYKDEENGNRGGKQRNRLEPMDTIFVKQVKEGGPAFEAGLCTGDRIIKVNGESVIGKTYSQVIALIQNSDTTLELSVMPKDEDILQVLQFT

[4] = target: AHNAK1, Q09666
AHNAK1, Q09666, sequence (Q09666 4-100): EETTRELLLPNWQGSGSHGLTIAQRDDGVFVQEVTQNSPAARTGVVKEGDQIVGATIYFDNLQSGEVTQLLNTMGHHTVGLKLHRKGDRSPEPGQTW

[5] = target: T3, FRMPD1, Q5SYB0
T3 sequence (Q5SYB0 52-145, limits assumed, looked up): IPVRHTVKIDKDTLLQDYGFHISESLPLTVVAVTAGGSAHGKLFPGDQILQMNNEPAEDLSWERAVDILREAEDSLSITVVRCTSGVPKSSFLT

[6] = target: DLG4_2, P78352
DLG4_2, P78352, sequence (P78352 155-259): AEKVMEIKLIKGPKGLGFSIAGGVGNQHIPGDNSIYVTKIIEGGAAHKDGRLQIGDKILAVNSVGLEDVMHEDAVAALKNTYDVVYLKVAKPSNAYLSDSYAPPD

[7] = target: T4, MPP2, Q14168
T4 sequence (Q14168 180-250, limits assumed, looked up): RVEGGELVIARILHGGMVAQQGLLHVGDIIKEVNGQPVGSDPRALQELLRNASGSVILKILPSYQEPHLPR

[8] = target: T5, HTRA4, P83105
T5 sequence (P83105 378-476, limits assumed, looked up): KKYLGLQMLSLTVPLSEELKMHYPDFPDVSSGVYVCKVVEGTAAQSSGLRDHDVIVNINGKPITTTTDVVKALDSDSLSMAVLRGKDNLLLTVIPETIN

[9] = target: Inadl_6, Q8NI35
Inadl_6, Q8NI35, sequence (Q8NI35 1058-1167): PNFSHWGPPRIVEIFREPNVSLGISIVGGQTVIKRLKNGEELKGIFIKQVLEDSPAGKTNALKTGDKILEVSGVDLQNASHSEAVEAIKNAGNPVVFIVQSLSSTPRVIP

[10] = target: T6, PDZD7_3, Q9H5P4
T6 sequence (Q9H5P4 857-944, limits assumed, looked up): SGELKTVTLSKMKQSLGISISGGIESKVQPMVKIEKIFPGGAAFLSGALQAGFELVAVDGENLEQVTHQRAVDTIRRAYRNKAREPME

[11] = target: GRID2IP_1, A4D2P6
GRID2IP_1, A4D2P6, sequence (A4D2P6 1-87): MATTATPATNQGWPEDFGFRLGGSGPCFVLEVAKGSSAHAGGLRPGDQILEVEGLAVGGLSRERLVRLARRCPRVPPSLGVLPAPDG

[12] = target: LNX1_3, Q8TBB1
LNX1_3, Q8TBB1, sequence (Q8TBB1 500-596): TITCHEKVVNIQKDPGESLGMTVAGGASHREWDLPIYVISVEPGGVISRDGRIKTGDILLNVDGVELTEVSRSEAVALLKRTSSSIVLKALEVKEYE

[13] = target: T7, PDZD2_2, O15018
T7 sequence (O15018 329-429, limits assumed, looked up): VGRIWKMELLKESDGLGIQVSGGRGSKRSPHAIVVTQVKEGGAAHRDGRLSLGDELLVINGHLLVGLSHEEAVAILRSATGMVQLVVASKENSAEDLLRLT

[14] = target: NHERF4_1, Q86UT5-2
NHERF4_1, Q86UT5-2, sequence (Q86UT5 other isoform, or with tags, fused parts or gaps): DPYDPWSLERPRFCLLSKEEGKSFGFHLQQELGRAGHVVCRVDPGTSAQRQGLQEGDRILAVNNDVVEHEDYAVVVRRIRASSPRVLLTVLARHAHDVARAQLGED

[15] = target: T8, CARD11, Q9BXL7
T8 sequence (Q9BXL7 662-765, limits assumed, looked up): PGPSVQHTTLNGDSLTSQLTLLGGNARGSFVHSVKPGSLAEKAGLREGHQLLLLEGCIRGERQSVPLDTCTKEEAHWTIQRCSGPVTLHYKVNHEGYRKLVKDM

[16] = target: FRMPD2_1, Q68DX3
FRMPD2_1, Q68DX3, sequence (Q68DX3 770-861): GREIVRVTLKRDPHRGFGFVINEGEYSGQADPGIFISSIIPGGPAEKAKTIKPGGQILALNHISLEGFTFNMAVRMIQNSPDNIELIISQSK

[17] = target: IL16_4, Q14005
IL16_4, Q14005, sequence (Q14005 1229-1329): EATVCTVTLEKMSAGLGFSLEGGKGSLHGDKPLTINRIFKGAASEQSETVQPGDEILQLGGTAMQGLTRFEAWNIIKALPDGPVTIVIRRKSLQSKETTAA

[18] = target: T9, LIN7C, Q9NUP9
T9 sequence (Q9NUP9 88-185, limits assumed, looked up): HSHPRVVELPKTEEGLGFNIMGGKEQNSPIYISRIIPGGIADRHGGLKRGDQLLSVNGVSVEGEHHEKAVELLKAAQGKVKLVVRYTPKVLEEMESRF

[19] = target: Inadl_1, Q8NI35
Inadl_1, Q8NI35, sequence (Q8NI35 113-229): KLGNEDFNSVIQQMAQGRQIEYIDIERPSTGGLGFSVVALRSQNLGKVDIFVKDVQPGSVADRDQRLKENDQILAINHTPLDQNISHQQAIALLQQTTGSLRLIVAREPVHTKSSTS

[20] = target: Inadl_9, Q8NI35
Inadl_9, Q8NI35, sequence (Q8NI35 1530-1615): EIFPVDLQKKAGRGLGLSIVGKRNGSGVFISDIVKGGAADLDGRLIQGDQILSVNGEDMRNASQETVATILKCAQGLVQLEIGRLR

[21] = target: MAST2, Q6P0Q8
MAST2, Q6P0Q8, sequence (Q6P0Q8 1099-1202): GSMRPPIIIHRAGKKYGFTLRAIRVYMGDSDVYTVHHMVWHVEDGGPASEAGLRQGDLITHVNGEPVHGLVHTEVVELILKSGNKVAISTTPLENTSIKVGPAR

[22] = target: Inadl_3, Q8NI35
Inadl_3, Q8NI35, sequence (Q8NI35 359-469): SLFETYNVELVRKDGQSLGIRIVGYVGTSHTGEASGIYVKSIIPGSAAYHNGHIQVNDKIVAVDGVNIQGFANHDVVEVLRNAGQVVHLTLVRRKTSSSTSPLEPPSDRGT

[23] = target: T10, LNX2_3, Q8N448
T10 sequence (Q8N448 463-564, limits assumed, looked up): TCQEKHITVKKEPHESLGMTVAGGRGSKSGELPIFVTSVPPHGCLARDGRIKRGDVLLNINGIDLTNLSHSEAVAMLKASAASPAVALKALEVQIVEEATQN

[24] = target: NHERF4_4, Q86UT5
NHERF4_4, Q86UT5, sequence (Q86UT5 464-550): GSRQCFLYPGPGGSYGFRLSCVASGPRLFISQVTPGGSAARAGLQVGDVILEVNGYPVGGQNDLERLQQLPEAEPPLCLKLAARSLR

[25] = target: T11, LIN7B, Q9HAP6
T11 sequence (Q9HAP6 88-185, limits assumed, looked up): T9 sequence (Q9NUP9 88-185, limits assumed, looked up) with S2A, E13D, I35V, I40V, H65Q, K79S, K89R, S96A

[26] = target: Inadl_8, Q8NI35
Inadl_8, Q8NI35, sequence (Q8NI35 1425-1530): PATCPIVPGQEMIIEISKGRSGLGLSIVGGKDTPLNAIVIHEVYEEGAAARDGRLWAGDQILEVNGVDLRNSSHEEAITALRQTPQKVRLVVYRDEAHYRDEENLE

[27] = target: MAGI2_5, Q86UL8
MAGI2_5, Q86UL8, sequence (Q86UL8 915-1017): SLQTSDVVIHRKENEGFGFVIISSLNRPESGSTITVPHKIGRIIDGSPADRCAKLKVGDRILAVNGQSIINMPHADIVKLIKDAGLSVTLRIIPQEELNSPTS

FRMPD2_2, Q68DX3, sequence (Q68DX3 944-1038): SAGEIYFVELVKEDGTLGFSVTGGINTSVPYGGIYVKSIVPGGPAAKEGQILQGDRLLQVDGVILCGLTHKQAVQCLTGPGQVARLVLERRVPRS

PKSNSSKEYV [CLDN7, O95471]
pKd [1]: below the threshold
pKd [2]: below the threshold
pKd [3]: below the threshold
pKd [4]: below the threshold
pKd [5]: below the threshold
pKd [6]: below the threshold
pKd [7]: below the threshold
pKd [8]: below the threshold
pKd [9]: below the threshold
pKd [10]: below the threshold
pKd [11]: below the threshold
pKd [12]: below the threshold
pKd [13]: 3.82
pKd [14]: below the threshold
pKd [15]: below the threshold
pKd [16]: below the threshold
pKd [17]: below the threshold
pKd [18]: 4.06
pKd [19]: below the threshold
pKd [20]: 3.71
pKd [21]: 3.65
pKd [22]: below the threshold
pKd [23]: below the threshold
pKd [24]: below the threshold
pKd [25]: below the threshold
pKd [26]: below the threshold
pKd [27]: below the threshold

SQPLLVHDDV [KIT, P10721]
pKd [1]: below the threshold
pKd [2]: below the threshold
pKd [3]: below the threshold
pKd [4]: below the threshold
pKd [5]: below the threshold
pKd [6]: below the threshold
pKd [7]: below the threshold
pKd [8]: 3.88
pKd [9]: below the threshold
pKd [10]: below the threshold
pKd [11]: below the threshold
pKd [12]: below the threshold
pKd [13]: 3.99
pKd [14]: below the threshold
pKd [15]: below the threshold
pKd [16]: below the threshold
pKd [17]: below the threshold
pKd [18]: below the threshold
pKd [19]: below the threshold
pKd [20]: below the threshold
pKd [21]: below the threshold
pKd [22]: below the threshold
pKd [23]: below the threshold
pKd [24]: below the threshold
pKd [25]: below the threshold
pKd [26]: 4.94
pKd [27]: below the threshold

EFKQTSSFLV [JAM1, Q9Y624]
pKd [1]: below the threshold
pKd [2]: below the threshold
pKd [3]: below the threshold
pKd [4]: below the threshold
pKd [5]: below the threshold
pKd [6]: 3.47
pKd [7]: below the threshold
pKd [8]: 4.05
pKd [9]: below the threshold
pKd [10]: 4.03
pKd [11]: below the threshold
pKd [12]: below the threshold
pKd [13]: 3.72
pKd [14]: 3.84
pKd [15]: below the threshold
pKd [16]: 3.75
pKd [17]: below the threshold
pKd [18]: below the threshold
pKd [19]: below the threshold
pKd [20]: 3.86
pKd [21]: below the threshold
pKd [22]: 4.65
pKd [23]: below the threshold
pKd [24]: below the threshold
pKd [25]: 3.88
pKd [26]: below the threshold
pKd [27]: below the threshold

DFKHTKSFII [JAM2, P57087]
pKd [1]: below the threshold
pKd [2]: below the threshold
pKd [3]: below the threshold
pKd [4]: below the threshold
pKd [5]: below the threshold
pKd [6]: below the threshold
pKd [7]: below the threshold
pKd [8]: 3.79
pKd [9]: below the threshold
pKd [10]: below the threshold
pKd [11]: below the threshold
pKd [12]: below the threshold
pKd [13]: 3.87
pKd [14]: below the threshold
pKd [15]: below the threshold
pKd [16]: 3.55
pKd [17]: below the threshold
pKd [18]: below the threshold
pKd [19]: below the threshold
pKd [20]: below the threshold
pKd [21]: below the threshold
pKd [22]: 4.45
pKd [23]: below the threshold
pKd [24]: below the threshold
pKd [25]: 3.63
pKd [26]: below the threshold
pKd [27]: below the threshold

GNDPDRGTSI [GRID2, O43424]
pKd [1]: below the threshold
pKd [2]: below the threshold
pKd [3]: below the threshold
pKd [4]: below the threshold
pKd [5]: below the threshold
pKd [6]: below the threshold
pKd [7]: below the threshold
pKd [8]: below the threshold
pKd [9]: below the threshold
pKd [10]: 4.1
pKd [11]: below the threshold
pKd [12]: below the threshold
pKd [13]: 4.76
pKd [14]: below the threshold
pKd [15]: below the threshold
pKd [16]: below the threshold
pKd [17]: below the threshold
pKd [18]: below the threshold
pKd [19]: below the threshold
pKd [20]: below the threshold
pKd [21]: 4.45
pKd [22]: below the threshold
pKd [23]: below the threshold
pKd [24]: below the threshold
pKd [25]: 3.69
pKd [26]: below the threshold
pKd [27]: below the threshold
